Measured values: patent US20160237160A1 (Bayer, published 2016)

Experiments:
[1] = molecular target: T1, TWEAKR (TNFRSF12A, FN14), human, on tumor cell lines (human, UniProt Q9NP84 28-129); assay: cell-based or functional assay
[2] = molecular target: T2, TPP-2614 (TweakR-ECD-34-68-hIgGFc-His-D47A) (human); assay: ELISA, IgG coated 1 ug/ml, TWEAKR variant 250 ng/ml, anti-HIS HRP (FIG. 6C)
T2 construct: also called D47A TWEAKR mutein
Procedure: Antibodies were coated (1 μg/ml), TWEAKR variant was added at 250 ng/ml, detection via anti-HIS HRP. […] Antibodies were coated (1 μg/ml), TWEAKR variant was added 250 ng/ml, detection via anti-HIS HRP.

[3] = molecular target: T1, TWEAKR (TNFRSF12A, FN14), human, on …; assay: cell-based or functional assay; remark: listed apart in the source
[4] = molecular target: T1, TWEAKR (TNFRSF12A, FN14), human, on …; assay: FACS, NCI-H322 cells, 10 ug/ml
Procedure: (§1) To determine the binding characteristics of the anti-TWEAKR antibodies on mouse and human cancer cell lines, binding was tested by flow cytometry to a panel of cell lines. […] Cells were suspended at approximately 10⁵ cells/well in FACS buffer (PBS without Ca/Mg, containing 3% FCS, Biochrom). Cells were centrifuged (250 g, 5 min, 4° C.) and supernatant discarded. Cells were resuspended in dilutions of the antibodies of interest (10 μg/ml in 80 μl if not indicated otherwise) in FACS buffer, and incubated on ice for 1 h. […] After incubation for 1 h on ice cells were again washed with cold FACS buffer, resuspended in 1000 FACS buffer and analyzed by flow cytometry using a FACS-Array (BD Biosciences). Results are calculated as Geo Mean of fluorescence detected by the antibody of interest subtracted by background fluorescence as measured by detection with the secondary antibody alone. Values are scored according to the following system: Geo Mean−Geo Mean of secondary antibody alone >10: +, >100: ++, >1000: +++, 10000: ++++, close to category border in ( ).

[5] = molecular target: T1, TWEAKR (TNFRSF12A, FN14), human, on …; assay: FACS, SKOV-3 cells, 10 ug/ml
[6] = molecular target: T1, TWEAKR (TNFRSF12A, FN14), human, on …; assay: FACS, A375 cells, 10 ug/ml
[7] = molecular target: T1, TWEAKR (TNFRSF12A, FN14), human, on …; assay: FACS, HT29 cells, 10 ug/ml
Procedure: as §1

[8] = molecular target: T1, TWEAKR (TNFRSF12A, FN14), human, on …; assay: FACS, WiDr cells, 10 ug/ml
Procedure: as §1

[9] = molecular target: T1, TWEAKR (TNFRSF12A, FN14), human, on …; assay: FACS, 786-O cells, 10 ug/ml
Procedure: as §1

[10] = molecular target: T3, TPP-2305 (hTNFRSF12Aaa28-80) (Human, UniProt Q9NP84 28-80); assay: SPR (Biacore T100), IgG captured, TPP-2305 injected, 1:1 model
T3 construct: monomeric extracellular domain, bought; also called purified recombinant human TWEAKR protein; soluble monomeric TWEAKR
Procedure: Binding affinities of anti-TWEAKR antibodies were determined by surface plasmon resonance analysis on a Biacore T100 instrument (GE Healthcare Biacore, Inc.). Antibodies were immobilized onto a CM5 sensor chip through an indirect capturing reagent, anti-human IgG(Fc). […] Anti-TWEAKR antibodies were injected at a concentration of 10 μg/ml at 10 μl/min for 10 sec.
Sensorgrams were generated after in-line reference cell correction followed by buffer sample subtraction. The dissociation equilibrium constant (KD) was calculated based on the ratio of association (kₒₙ) and dissociation rated (koff) constants, obtained by fitting sensorgrams with a first order 1:1 binding model.

[11] = molecular target: T1, TWEAKR (TNFRSF12A, FN14), human, on …; assay: cell-based or functional assay; remark: listed apart in the source

| Binder | Fold induction of Caspase 3/7, 786-O cells, 100 ug/ml [1] | Fold induction of Caspase 3/7, HT-29 cells, 100 ug/ml [1] | Fold induction of Caspase 3/7, NCI-H322 cells, 100 ug/ml [1] | % binding normalized by wt binding signal [2] | Kd [10] | koff [10] | kon [10] | also measured |
| --- | --- | --- | --- | --- | --- | --- | --- | --- |
| TPP-1853 (antibody, human IgG1, kappa, V domains shown, Human IgG1) VH: EVQLLESGGGLVQPGGSLRLSCAASGFTFSPYPMMWVRQAPGKGLEWVSYISPSGGKTHYADSVKGRFTISRDNSKNTLYLQMNSLRAEDTAVYYCARGGDTYFDYFDYWGQGTLVTVSS VL: DIQMTQSPATLSASVGDRVTITCRASQSISSYLNWYQQKPGKAPKLLIYNASSLQSGVPSRFSGSGSGTDFTLTISSLQPEDFATYYCQQSYTSPGITFGPGTKVEIKR | 1.88 fold | 2.53 fold | 1.94 fold | < 5% | – | – | – | – |
| TPP-2093 (antibody, human IgG1, kappa, V domains shown, Human IgG1) VH: EVQLLESGGGLVQPGGSLRLSCAASGFTFSPYPMMWVRQAPGKGLEWVSYISPSGGSTHYADSVKGRFTISRDNSKNTLYLQMNSLRAEDTAVYYCARGGDTYFDYFDYWGQGTLVTVSS VL: DIQMTQSPSSLSASVGDRVTITCRASQSISSYLNWYQQKPGKAPKLLIYQASSLQSGVPSRFSGSGSGTDFTLTISSLQPEDFATYYCQQSYTSPFITFGQGTKVEIKR | 1.43 fold | 2.54 fold | – | < 5% | 22.1 nM | 0.09 s⁻¹ | 4.1e+06 M⁻¹ s⁻¹ | % Inhibition of proliferation, A253 cells, 72h, 100 ug/ml [3]: > 100%; % Inhibition of proliferation, HT-29 cells, 24h, 100 ug/ml [3]: > 100%; GeoMean of Fluorescence minus GeoMean with the secondary antibody only [4]: 160; GeoMean of Fluorescence minus GeoMean with the secondary antibody only [5]: 2180; GeoMean of Fluorescence minus GeoMean with the secondary antibody only [6]: 255; GeoMean of Fluorescence minus GeoMean with the secondary antibody only [7]: 875; GeoMean of Fluorescence minus GeoMean with the secondary antibody only [8]: 1720; GeoMean of Fluorescence minus GeoMean with the secondary antibody only [9]: 18200 |
| TPP-2148 (antibody, human IgG1, kappa, V domains shown, Human IgG1) VH: EVQLLESGGGLVQPGGSLRLSCAASGFTFSPYPMMWVRQAPGKGLEWVSYISPSGGKTHYADSVKGRFTISRDNSKNTLYLQMNSLRAEDTAVYYCARGGDTYFDYFDYWGQGTLVTVSS VL: DIQMTQSPATLSASVGDRVTITCRASQSISSYLNWYQQKPGKAPKLLIYQASSLQSGVPSRFSGSGSGTDFTLTISSLQPEDFATYYCQQSYTSPFITFGPGTKVEIKR | – | – | – | < 5% | 24.5 nM | 0.13 s⁻¹ | 5.1e+06 M⁻¹ s⁻¹ | – |
| TPP-883 (antibody, human IgG1, kappa, V domains shown, Human IgG1; parent antibody from the phage library) VH: EVQLLESGGGLVQPGGSLRLSCAASGFTFSPYPMMWVRQAPGKGLEWVSYISPSGGKTHYADSVKGRFTISRDNSKNTLYLQMNSLRAEDTAVYYCARGGDGYFDYFDYWGQGTLVTVSS VL: DIQMTQSPATLSASVGDRVTITCRASQSISSYLNWYQQKPGKAPKLLIYAASSLQSGVPSRFSGSGSGTDFTLTISSLQPEDFATYYCQQSYSSPGITFGPGTKVEIKR | – | – | – | < 5% | 206 nM | 0.91 s⁻¹ | 4.4e+06 M⁻¹ s⁻¹ | – |
| TPP-1857 (antibody, human IgG1, kappa, V domains shown, Human IgG1) VH: EVQLLESGGGLVQPGGSLRLSCAASGFTFSPYPMMWVRQAPGKGLEWVSYISPSGGKTHYADSVKGRFTISRDNSKNTLYLQMNSLRAEDTAVYYCARGGDTYFDYFDYWGQGTLVTVSS VL: DIQMTQSPATLSASVGDRVTITCRASQSISGYLNWYQQKPGKAPKLLIYNASSLQSGVPSRFSGSGSGTDFTLTISSLQPEDFATYYCQQSYTSPGITFGPGTKVEIKR | 1.76 fold | 2.37 fold | 1.89 fold | < 5% | – | – | – | – |
| TPP-1858 (antibody, human IgG1, kappa, V domains shown, Human IgG1) VH: EVQLLESGGGLVQPGGSLRLSCAASGFTFSPYPMMWVRQAPGKGLEWVSYISPSGGKTHYADSVKGRFTISRDNSKNTLYLQMNSLRAEDTAVYYCARGGDTYFDYFDYWGQGTLVTVSS VL: DIQMTQSPATLSASVGDRVTITCRASQSISSYLNWYQQKPGKAPKLLIYNASSLQSGVPSRFSGSGSGTDFTLTISSLQPEDFATYYCQQSYTSPFITFGPGTKVEIKR | 2.22 fold | 2.41 fold | 2.01 fold | < 5% | – | – | – | – |
| TPP-2149 (antibody, human IgG1, kappa, V domains shown, Human IgG1) VH: EVQLLESGGGLVQPGGSLRLSCAASGFTFSPYPMIWVRQAPGKGLEWVSYISPSGGKTHYADSVKGRFTISRDNSKNTLYLQMNSLRAEDTAVYYCARGGDTYFDYFDYWGQGTLVTVSS VL: DIQMTQSPATLSASVGDRVTITCRASQSISGYLNWYQQKPGKAPKLLIYQASSLQSGVPSRFSGSGSGTDFTLTISSLQPEDFATYYCQQSYTSPFITFGPGTKVEIKR | – | – | – | < 5% | 12.1 nM | 0.1 s⁻¹ | 8.4e+06 M⁻¹ s⁻¹ | – |
| TPP-1854 (antibody, human IgG1, kappa, V domains shown, Human IgG1) VH: EVQLLESGGGLVQPGGSLRLSCAASGFTFSPYPMIWVRQAPGKGLEWVSYISPSGGKTHYADSVKGRFTISRDNSKNTLYLQMNSLRAEDTAVYYCARGGDTYFDYFDYWGQGTLVTVSS VL: DIQMTQSPATLSASVGDRVTITCRASQSISGYLNWYQQKPGKAPKLLIYNASSLQSGVPSRFSGSGSGTDFTLTISSLQPEDFATYYCQQSYTSPFITFGPGTKVEIKR | 2.11 fold | 2.7 fold | 1.98 fold | < 5% | – | – | – | IL-8 release from A375 cells at 100 ug/ml, % of the activation by 300 ng/ml TWEAK ligand [11]: 129% |
| ITEM-4 (antibody, V domains shown) VH: QVQLQQSGPELVKPGASVKMSCKASGYTFTDFIIAWVKQRTGQGLEWIGEIYPGTGRTYYSEKFRGKATLTADKSSNTAYMQLSSLTSVDSAVYFCARRTIYYDYDGDYWGQGTTLTVSS VL: DIVMTQAAFSNPVTLGTSASISCRSSKSLLHSNGITYLYWYLQKPGQSPQLLIYQMSNLASGVPDRFSSSGSGTDFTLRISRVEAEDVGVYYCAHNLELPWTFGGGTKLELK | – | – | – | – | 0.7 nM | – | – | – |
